Data from the supplement of paper PMC9112550, “Optimization of the antimicrobial peptide Bac7 by deep mutational scanning” (BMC Biology, 2022).

Test system: Escherichia coli TOP10
Experiment: shrunken log2 fold change of peptide-encoding DNA abundance (4.5 h post-induction vs induction); higher = less antimicrobial activity (less host growth inhibition)
Details: time post-induction: 4.5 h; library: site-saturation at positions 5, 18, 19, 20
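Note: peptides expressed intracellularly from a pBAD plasmid library in pooled LB shake-flask culture, induced with 0.3% L-arabinose, DNA abundance read by NGS, three biological replicates, DESeq2 with apeglm shrinkage.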

Sequence | shrunken log2 fold change
RRIRARPPRLPRPRPRPLDMPRP | -0.00812
RRIRHRPPRLPRPRPRPHQGPRP | -0.00197
RRIRWRPPRLPRPRPRPQNNPRP | -0.622
RRIRSRPPRLPRPRPRPCACPRP | -0.0721
RRIRMRPPRLPRPRPRPINAPRP | -0.0931
RRIRWRPPRLPRPRPRPMQFPRP | 0.104
RRIRSRPPRLPRPRPRPDFIPRP | 0.00191
RRIRARPPRLPRPRPRPTRPPRP | 0.764
RRIRFRPPRLPRPRPRPVGCPRP | -0.0325
RRIRIRPPRLPRPRPRPRMHPRP | -0.0356
RRIRTRPPRLPRPRPRPIPRPRP | 0.299
RRIRLRPPRLPRPRPRPDHQPRP | -0.118
RRIRLRPPRLPRPRPRPSIAPRP | -0.217
RRIRCRPPRLPRPRPRPVWTPRP | 0.0232
RRIRGRPPRLPRPRPRPDLRPRP | 0.0067
RRIRKRPPRLPRPRPRPKRDPRP | 0.539
RRIRCRPPRLPRPRPRPVTHPRP | -0.29
RRIRFRPPRLPRPRPRPDQFPRP | -0.221
RRIRSRPPRLPRPRPRPMTGPRP | 0.00381
RRIRLRPPRLPRPRPRPPRRPRP | 0.746
RRIRSRPPRLPRPRPRPYPDPRP | -0.172
RRIRVRPPRLPRPRPRPDDPPRP | 0.359
RRIRYRPPRLPRPRPRPPWVPRP | -0.209

Sequence | shrunken log2 fold change
RRIRYRPPRLPRPRPRPSAQPRP | -0.17
RRIRGRPPRLPRPRPRPETFPRP | 1.08
RRIRGRPPRLPRPRPRPPEHPRP | 0.853
RRIRDRPPRLPRPRPRPGFWPRP | 0.493
RRIRCRPPRLPRPRPRPEHRPRP | -0.0739
RRIRPRPPRLPRPRPRPRVYPRP | -0.311
RRIRGRPPRLPRPRPRPMMTPRP | 3.31
RRIRHRPPRLPRPRPRPHCFPRP | -0.312
RRIRNRPPRLPRPRPRPAGIPRP | -0.0145
RRIRWRPPRLPRPRPRPHHDPRP | -0.708
RRIRQRPPRLPRPRPRPNMRPRP | 0.121
RRIRIRPPRLPRPRPRPPMQPRP | -0.193
RRIRERPPRLPRPRPRPNCCPRP | -0.00112
RRIRVRPPRLPRPRPRPCALPRP | -0.115
RRIRARPPRLPRPRPRPVCQPRP | 0.58
RRIRPRPPRLPRPRPRPQECPRP | 0.0456
RRIRSRPPRLPRPRPRPSADPRP | 0.0633
RRIRLRPPRLPRPRPRPSAHPRP | 0.0318
RRIRNRPPRLPRPRPRPMKCPRP | 0.0131
RRIRFRPPRLPRPRPRPWNCPRP | -0.0434
RRIRLRPPRLPRPRPRPHCAPRP | -0.309
RRIRRRPPRLPRPRPRPHAEPRP | 0.317
RRIRYRPPRLPRPRPRPSMTPRP | -0.817

Sequence | shrunken log2 fold change
RRIRYRPPRLPRPRPRPGQPPRP | 0.0516
RRIRSRPPRLPRPRPRPRDIPRP | -0.248
RRIRSRPPRLPRPRPRPKEHPRP | 0.0336
RRIRWRPPRLPRPRPRPQHQPRP | -0.142
RRIRQRPPRLPRPRPRPHVNPRP | 0.0398
RRIRCRPPRLPRPRPRPQSSPRP | -0.103
RRIRMRPPRLPRPRPRPKMNPRP | 0.501
RRIRSRPPRLPRPRPRPWLDPRP | -0.0811
RRIRPRPPRLPRPRPRPPHEPRP | -0.0736
RRIRQRPPRLPRPRPRPPAMPRP | -0.0312
RRIRPRPPRLPRPRPRPFICPRP | -0.276
RRIRSRPPRLPRPRPRPPITPRP | -0.177
RRIRHRPPRLPRPRPRPRIEPRP | 0.15
RRIRFRPPRLPRPRPRPIPFPRP | 2.3
RRIRTRPPRLPRPRPRPDRTPRP | -0.442
RRIRNRPPRLPRPRPRPRACPRP | -0.0233
RRIRVRPPRLPRPRPRPPVCPRP | 0.191
RRIRGRPPRLPRPRPRPSIDPRP | 1.84
RRIRVRPPRLPRPRPRPSQWPRP | 0.0963
RRIRWRPPRLPRPRPRPGTAPRP | 0.392
RRIRGRPPRLPRPRPRPTVKPRP | 0.642
RRIRARPPRLPRPRPRPLINPRP | 0.0648
RRIRNRPPRLPRPRPRPDQNPRP | -0.017

Sequence | shrunken log2 fold change
RRIRMRPPRLPRPRPRPEISPRP | 0.0502
RRIRWRPPRLPRPRPRPPDDPRP | 0.847
RRIRGRPPRLPRPRPRPFKPPRP | -0.0354
RRIRFRPPRLPRPRPRPQAEPRP | -0.263
RRIRARPPRLPRPRPRPIGEPRP | -0.0613
RRIRYRPPRLPRPRPRPFAPPRP | -0.386
RRIRDRPPRLPRPRPRPAHHPRP | 0.113
RRIRARPPRLPRPRPRPDQDPRP | 0.605
RRIRNRPPRLPRPRPRPPFWPRP | 0.196
RRIRVRPPRLPRPRPRPWQQPRP | -0.097
RRIRWRPPRLPRPRPRPEHVPRP | 0.0199
RRIRLRPPRLPRPRPRPVWMPRP | 0.372
RRIRARPPRLPRPRPRPTFQPRP | 0.529
RRIRCRPPRLPRPRPRPDYTPRP | -0.442
RRIRKRPPRLPRPRPRPNCEPRP | 0.082
RRIRDRPPRLPRPRPRPSGKPRP | -0.24
RRIRSRPPRLPRPRPRPFTTPRP | -0.392
RRIRERPPRLPRPRPRPVNPPRP | -0.0961
RRIRIRPPRLPRPRPRPVQGPRP | 0.552
RRIRQRPPRLPRPRPRPFAAPRP | 0.336
RRIRFRPPRLPRPRPRPQDCPRP | 0.00177
RRIRIRPPRLPRPRPRPIWCPRP | -0.00146
